According to article PMC5415106, “Dpb11 may function with RPA and DNA to initiate DNA replication” (PLoS ONE, 2017):

T1: GST-Dpb11-wild-type (budding yeast, UniProt P47027 1-764)
T1 construct: Dpb11, budding yeast, full-length; also called Full-length Dpb11; wild-type Dpb11
T1 sequence (looked up): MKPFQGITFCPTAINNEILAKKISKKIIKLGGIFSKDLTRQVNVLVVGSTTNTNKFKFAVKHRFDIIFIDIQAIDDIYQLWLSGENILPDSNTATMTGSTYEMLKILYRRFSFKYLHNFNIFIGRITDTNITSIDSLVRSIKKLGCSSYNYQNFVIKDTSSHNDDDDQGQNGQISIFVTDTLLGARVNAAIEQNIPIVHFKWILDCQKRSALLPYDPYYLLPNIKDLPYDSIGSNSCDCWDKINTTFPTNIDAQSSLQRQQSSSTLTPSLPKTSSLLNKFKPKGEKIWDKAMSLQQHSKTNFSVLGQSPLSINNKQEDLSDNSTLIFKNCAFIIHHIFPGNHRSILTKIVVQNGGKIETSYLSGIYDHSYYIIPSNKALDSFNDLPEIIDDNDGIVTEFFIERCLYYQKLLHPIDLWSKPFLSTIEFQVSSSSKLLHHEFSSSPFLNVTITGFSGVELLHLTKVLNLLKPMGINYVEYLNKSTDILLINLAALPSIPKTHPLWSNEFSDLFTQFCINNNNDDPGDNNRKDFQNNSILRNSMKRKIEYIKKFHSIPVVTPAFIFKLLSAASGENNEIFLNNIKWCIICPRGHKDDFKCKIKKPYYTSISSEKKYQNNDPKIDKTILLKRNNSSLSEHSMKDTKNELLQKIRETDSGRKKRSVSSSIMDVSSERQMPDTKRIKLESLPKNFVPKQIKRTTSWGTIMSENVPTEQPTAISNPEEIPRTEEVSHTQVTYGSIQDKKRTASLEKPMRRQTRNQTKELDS

B1: PKA-Sld2T84D (natural protein, budding yeast, UniProt P34252 1-453, looked up)
chain: MYSFELDKLKIELKTWEHDFIDKNKREPTRDDIKSLRTVRQMYKQYSTLKKKQSLQRQKVDTQESVELPAHKKDHDEVVEIGPDPQVYGKAISIFDMNLSPIKPIYMTFTNNIDVNNDNSKTISNESSPRKTILLKSSPADRTLVAEPISSVKRQLNFQMLNASSTRTPTSSPCKNRNGKLVEIKKCSPTINPPLESGKPSGYYGPNSPLKLDEENIHLNISLNSSTKRRLQIAYPSLQKTPSKDQADISTSFSPSPLIRRPLTKSLIELAREHTEIVKEFGVLQEEDIEEEEEGEEGENGYDEKNHEDDFGLEDELIRPKVVKDIFQEDDDNDDSQAREDTFIRKRPKRRKVIRRLRDNDPETETAGFERDVHKELVKLKRRKVAEFLGSTSQISDTEFEHDPEASSGVVSSEQKPTAKRKGRKKYNLVSNNFRRLKLPKKNRFSNGRWGRR
modifications: 32P-phosphate on the artificial PKA site
notes: Sld2, budding yeast, with T84D; not shown: PKA site, N-terminal, kept
B2: GST-Dpb11-m1,2,3,5,ΔC (natural protein, budding yeast, UniProt P47027 1-615, looked up)
chain: MKPFQGITFCPTAINNEILAKKISKKIIKLGGIFSKDLTRQVNVLVVGSTTNTNKFKFAVKHRFDIIFIDIQAIDDIYQLWLSGENILPDSNTATMTGSTYEMLKILYRRFSFKYLHNFNIFIGRITDTNITSIDSLVRSIKKLGCSSYNYQNFVIKDTSSHNDDDDQGQNGQISIFVTDTLLGARVNAAIEQNIPIVHFKWILDCQKRSALLPYDPYYLLPNIKDLPYDSIGSNSCDCWDKINTTFPTNIDAQSSLQRQQSSSTLTPSLPKTSSLLNKFKPKGEKIWDKAMSLQQHSKTNFSVLGQSPLSINNKQEDLSDNSTLIFKNCAFIIHHIFPGNHRSILTKIVVQNGGKIETSYLSGIYDHSYYIIPSNKALDSFNDLPEIIDDNDGIVTEFFIERCLYYQKLLHPIDLWSKPFLSTIEFQVSSSSKLLHHEFSSSPFLNVTITGFSGVELLHLTEVLNLLEPMGINYVEYLNKSTDILLINLAALPSIPKTHPLWSNEFSDLFTQFCINNNNDDPGDNNRKDFQNNSILENSMKRKIEYIEKFHSIPVVTPAFIFKLLSAASGENNEIFLNNIKWCIICPRGHKDDFKCKIKKPYYTSISSEKKYQN
notes: Dpb11, budding yeast; ΔC = deletion of amino acids 616 to 764 (the C-terminus), so residues up to 615 remain; m1,2,3,5 = K463E, K469E, R538E, K549E in the BRCT4 motif; also called Dpb11-K463E, K469E, R538E,K549E, Δaa616-764; Dpb11-m1,2,3,4,ΔC (as printed once)
B3: Cdc45 (purified, radiolabelled) (natural protein, budding yeast, UniProt Q08032 1-650, looked up)
chain: MYYGISQFSEAYNKILRNSSSHSSCQLVIFVSCLNIDALCATKMLSLLFKKQLVQSQIVPIFGYSELRRHYSQLDDNINSLLLVGFGGVIDLEAFLEIDPQEYVIDTDEKSGEQSFRRDIYVLDAHRPWNLDNIFGSQIIQCFDDGTVDDTLGEQKEAYYKLLELDEESGDDELSGDENDNNGGDDEATDADEVTDEDEEDEDETISNKRGNSSIGPNDLSKRKQRKKQIHEYEGVLEEYYSQGTTVVNSISAQIYSLLSAIGETNLSNLWLNILGTTSLDIAYAQVYNRLYPLLQDEVKRLTPSSRNSVKTPDTLTLNIQPDYYLFLLRHSSLYDSFYYSNYVNAKLSLWNENGKKRLHKMFARMGIPLSTAQETWLYMDHSIKRELGIIFDKNLDRYGLQDIIRDGFVRTLGYRGSISASEFVEALTALLEVGNSTDKDSVKINNDNNDDTDGEEEEDNSAQKLTNLRKRWVSNFWLSWDALDDRKVELLNRGIQLAQDLQRAIFNTGVAILEKKLIKHLRIYRLCVLQDGPDLDLYRNPLTLLRLGNWLIECCAESEDKQLLPMVLASIDENTDTYLVAGLTPRYPRGLDTIHTKKPILNNFSMAFQQITAETDAKVRIDNFESSIIEIRREDLSPFLEKLTLSGLL
notes: Cdc45, budding yeast; The legend says only 'Similar to (A), except Cdc45 was used in place of Sld2T84D'; not shown: PKA tag (inferred from the radiolabelling method), N-terminal, kept

Legend:
Assay in all cases: pull-down; 10 pmol GST-tagged Dpb11 with 32P-labelled protein, no DNA; GST-binding buffer (40 mM Tris-HCl pH 7.5, 100 mM NaCl, 0.1 mM EDTA, 10% glycerol, 0.1% Triton X-100, 1 mM DTT, 0.1 mg/ml BSA), 25°C 1 h; glutathione Sepharose, two washes; SDS-PAGE and phosphorimaging
Details in all cases: both partners purified
GST-Dpb11-m1,2,3,5,ΔC = target: B2
GST-Dpb11-wild-type = target: T1, GST-Dpb11-wild-type
[1] = target: B3
[2] = target: T2, Mcm2-7 complex with a PKA tag at the N-terminus of Mcm2 (budding yeast, UniProt P29469 1-868; P24279 1-971; P30665 1-933; P29496 1-775; P53091 1-1017; P38132 …, 32P-phosphate on the PKA tag)
T2 construct: Mcm2, budding yeast; Mcm3, budding yeast; Mcm4, budding yeast; Mcm5, budding yeast; Mcm6, budding yeast; Mcm7, budding yeast (named only within 'Mcm2-7'); not shown: PKA tag, N-terminal, kept; copies: + + + + +

| binding result (GST-Dpb11-m1,2,3,5,ΔC) | binding result (GST-Dpb11-wild-type) | binding result [1] | binding result [2] | Binder |
| --- | --- | --- | --- | --- |
| binds | binds |  |  | B1 |
|  |  | binds | binds | B2 |
|  | binds |  |  | B3 |
